From patent CN113564213A

Columns and labels:
[1] = target: 增强型荧光蛋白eGFP (eGFP的A206K突变体, mEGFP); assay: bead capture from 2 mL eGFP IVTT liquid, eGFP in excess, 1 h; fluorescence (RFU) of Total against Flow-through
[2] = target: 增强型荧光蛋白eGFP (eGFP的A206K突变体, mEGFP); assay: bead capture from 1 mL eGFP IVTT liquid, beads in excess, 1 h; fluorescence (RFU) of IVTT supernatant against flow-through

B1: antiEGFP-mScarlet-Tamvavidin2融合蛋白 (VHH, part only; not given: mScarlet and Tamavidin2 parts, not shown: large carriers)
chain, part: MAQVQLVESGGALVQPGGSLRLSCAASGFPVNRYSMRWYRQAPGKEREWVAGMSSAGDRSSYEDSVKGRFTISRDDARNTVYLQMNSLKPEDTAVYYCNVNVGFEYWGQGTQVTVSS
载量 (每毫升antiEGFP磁珠结合的eGFP蛋白的质量) [1]: 17.7 mg/mL | 结合效率 [2]: 98.2%
